± gives the standard deviation of the averaged measurements.
System: ATP
Assay: switch fluorescence ratio, 500 uM ATP over buffer (Cy3 cluster intensity, sum of 5 cycles each) (fold (ratio)); higher = stronger signal-on switching upon ATP binding; sequences stand for … in TCGTCGGCAGCGTCAGATGTGTATAAGAGACAGTTTTTTTTTTTTTTTTTTTTTTTTT…TC
Details: aptamer strand: ATP DNA aptamer (quencher-CACCTGGGGGAGTATTGCGGAGGAAGG + anchor), 100 nM annealed; ATP concentration: 500 uM
Procedure, shortened: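 Imaging in selection buffer was followed by imaging after 15 min with 500 uM ATP at 22 °C, for Cy3-labelled switching-strand clusters annealed to 100 nM quencher-labelled ATP aptamer on a modified Illumina MiSeq flow-cell. Five of these buffer/ATP cycles ran, separated by NaOH stripping and re-annealing. The fluorescence ratio per cluster is summed target-cycle over summed buffer-cycle Cy3 intensity, averaged per switch-domain sequence; clusters outside 100-1000 RFU were removed.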
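Further: ATP exposure 15 min at 22 °C before imaging.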

Row | Sequence | switch fluorescence ratio
1 | GGATGTATCT | 0.995 ± 0.012
2 | GGATGTGCG | 0.961 ± 0.05
3 | GGATGTTTTG | 1.03 ± 0.015
4 | GGATTAAAGG | 1.03 ± 0.013
5 | GGATTAAATT | 0.9996 ± 0.0019
6 | GGATTAACTA | 0.9887 ± 0.0061
7 | GGATTAATG | 1.1 ± 0.12
8 | GGATTAGGGA | 1.01 ± 0.03
9 | GGATTCATGG | 1.01 ± 0.021
10 | GGATTCCGGG | 0.988 ± 0.027
11 | GGATTTAAAT | 0.976 ± 0.042
12 | GGATTTATTG | 1.02 ± 0.022
13 | GGATTTGAGG | 1 ± 0.026
14 | GGATTTGGAG | 0.993 ± 0.024
15 | GGATTTGGGG | 0.9878 ± 0.0073
16 | GGATTTGGTA | 0.978 ± 0.032
17 | GGATTTGTGA | 1.02 ± 0.022
18 | GGCAAAGCGT | 1.03 ± 0.025
19 | GGCAAAGGGG | 1.01 ± 0.041
20 | GGCAACCATA | 1.02 ± 0.032
21 | GGCAACGAAA | 1.039 ± 0.0099
22 | GGCAATATTT | 1.2 ± 0.061
23 | GGCAATTGTA | 1.03 ± 0.027
24 | GGCACAGATG | 1.02 ± 0.015
25 | GGCAGAAATG | 0.994 ± 0.011

Row | Sequence | switch fluorescence ratio
26 | GGCAGAATAA | 1.05 ± 0.13
27 | GGCAGAGATC | 1.06 ± 0.077
28 | GGCAGATGAC | 0.9674 ± 0.0031
29 | GGCAGCCGGC | 1.03 ± 0.041
30 | GGCAGCGTGG | 0.994 ± 0.041
31 | GGCAGCTTTT | 1.05 ± 0.088
32 | GGCAGGAAAG | 1 ± 0.011
33 | GGCAGGCGGA | 1 ± 0.012
34 | GGCAGGGCTG | 0.974 ± 0.051
35 | GGCAGGGGCT | 1 ± 0.044
36 | GGCAGTCCGG | 0.9876 ± 0.0024
37 | GGCAGTTTGG | 1.01 ± 0.023
38 | GGCATAAGTA | 1.008 ± 0.0054
39 | GGCATAGCCC | 0.954 ± 0.024
40 | GGCATATTGT | 0.985 ± 0.025
41 | GGCATCGGTT | 0.977 ± 0.027
42 | GGCATCGTAG | 0.998 ± 0.021
43 | GGCATGAGGT | 1 ± 0.016
44 | GGCATTAGGT | 0.977 ± 0.042
45 | GGCATTTAAA | 0.983 ± 0.024
46 | GGCATTTTAT | 1.01 ± 0.061
47 | GGCCAATAAT | 0.991 ± 0.016
48 | GGCCAGGGTG | 2.29 ± 0.07
49 | GGCCCCCGGT | 1.1 ± 0.068
50 | GGCCCCGGAT | 1 ± 0.07

Row | Sequence | switch fluorescence ratio
51 | GGCCCGATTT | 1.01 ± 0.024
52 | GGCCCGCGTT | 1.11 ± 0.065
53 | GGCCCGGTTT | 0.99 ± 0.029
54 | GGCCCGTGCA | 1.004 ± 0.0015
55 | GGCCCTGCGG | 1.02 ± 0.025
56 | GGCCGAGGTC | 1.02 ± 0.013
57 | GGCCGATTTT | 0.9813 ± 0.0042
58 | GGCCGTATCT | 1.03 ± 0.044
59 | GGCCTGAAAC | 0.9929 ± 0.0037
60 | GGCCTGGATC | 1.02 ± 0.057
61 | GGCCTGGGTA | 1 ± 0.031
62 | GGCCTGGGTT | 0.967 ± 0.0098
63 | GGCCTGGTTT | 1.03 ± 0.057
64 | GGCCTGTGTG | 1.02 ± 0.041
65 | GGCCTTAGGG | 0.987 ± 0.013
66 | GGCCTTATTG | 1 ± 0.031
67 | GGCCTTGTGT | 1.0357 ± 0.00094
68 | GGCGAAGGCC | 0.973 ± 0.02
69 | GGCGAATGGG | 0.98 ± 0.041
70 | GGCGAGCTGG | 0.9997 ± 0.0034
71 | GGCGAGGTGT | 1 ± 0.034
72 | GGCGAGTATG | 0.9522 ± 0.0037
73 | GGCGCAACGG | 1.05 ± 0.024
74 | GGCGCAATTT | 2.4 ± 0.27
75 | GGCGCCGGGC | 1.02 ± 0.022

Row | Sequence | switch fluorescence ratio
76 | GGCGCCGTTG | 0.978 ± 0.019
77 | GGCGCCGTTT | 0.986 ± 0.023
78 | GGCGCTGTGA | 1.01 ± 0.022
79 | GGCGCTTATA | 1 ± 0.042
80 | GGCGGCATCT | 1.01 ± 0.023
81 | GGCGGCCGAT | 0.9707 ± 0.005
82 | GGCGGCGCGT | 1.04 ± 0.019
83 | GGCGGGAGGA | 1.02 ± 0.025
84 | GGCGGGGAGG | 1.01 ± 0.033
85 | GGCGGGGCTT | 0.968 ± 0.025
86 | GGCGGGGGTG | 1.04 ± 0.065
87 | GGCGGGTAGA | 1.043 ± 0.0093
88 | GGCGGTTAAG | 1.013 ± 7.9e-05
89 | GGCGGTTACT | 1.04 ± 0.015
90 | GGCGTACAAA | 0.985 ± 0.019
91 | GGCGTCAGAC | 1 ± 0.031
92 | GGCGTCAGGA | 1.01 ± 0.027
93 | GGCGTCCTCT | 1.05 ± 0.034
94 | GGCGTCTTCC | 1.01 ± 0.037
95 | GGCGTGTTGG | 1.02 ± 0.045
96 | GGCGTTGTCC | 1.02 ± 0.044
97 | GGCGTTGTTC | 0.984 ± 0.034
98 | GGCGTTTATC | 0.9746 ± 0.0018
99 | GGCTAAAAAC | 1 ± 0.039
100 | GGCTAAAGCG | 0.974 ± 0.012
